According to paper PMC8565334, “The horizontal transfer of Pseudomonas aeruginosa PA14 ICE PAPI-1 is controlled by a transcriptional triad between TprA, NdpA2 and MvaT”:

What was measured:
TprA [1] = target: T1, TprA (Pseudomonas aeruginosa PA14, UniProt A0A0H2ZFZ8 1-84); experiment: EMSA; details: protein: recombinant; tags: His-tag removed by TEV; chain copies: 2; label: 5'-Cy5 on strand 1; blunt
TprA [2] = target: T1, TprA; experiment: EMSA; 1 uM TprA; details: protein: recombinant; tags: His-tag removed by TEV; chain copies: 2; label: 5'-Cy5 on strand 1; blunt

B1: R3.4 (dsDNA)
DNA 1: ATTCTAAAACGATTAGAACTTCTATTTTATCCA
DNA 2: TGGATAAAATAGAAGTTCTAATCGTTTTAGAAT
B1: no binding (TprA [1]).

B2: R3 (dsDNA)
DNA 1: AATTTAGCCCAATAGTATTTAAAGCTCAATTAGCACCCCGTACTGTCTGACCTGAGTTCAACAAAGCATTCTAAAACGATTAGAACTTCTATTTTATCCA
DNA 2: TGGATAAAATAGAAGTTCTAATCGTTTTAGAATGCTTTGTTGAACTCAGGTCAGACAGTACGGGGTGCTAATTGAGCTTTAAATACTATTGGGCTAAATT
B2: binds (TprA [2]).

B3: R1 (dsDNA)
DNA 1: TTGCAGGGGTTTCGGAGAAAAAACCTGTGACCCAGAACTCTTTTTCCGTATATTTTAAAGCGAAGTCTTCAACAAGCCTTACCGAGAAAGGAAACAGGAT
DNA 2: ATCCTGTTTCCTTTCTCGGTAAGGCTTGTTGAAGACTTCGCTTTAAAATATACGGAAAAAGAGTTCTGGGTCACAGGTTTTTTCTCCGAAACCCCTGCAA
B3: no binding (TprA [2]).

B4: R2 (dsDNA)
DNA 1: AGTACTGAATCCAGCCACTACCAAGGGGTTAACTGATGCCAGGCTTGGAAATACGGAGCCTTTCCAAGCGACTAAAACAAAGAAGAAAGCTCCCCAGAAA
DNA 2: TTTCTGGGGAGCTTTCTTCTTTGTTTTAGTCGCTTGGAAAGGCTCCGTATTTCCAAGCCTGGCATCAGTTAACCCCTTGGTAGTGGCTGGATTCAGTACT
B4: no binding (TprA [2]).

B5: R4 (dsDNA)
DNA 1: TTTCTAACAACGATTCCCACCTGGCTCGCTTTAGGCGTAACATGAAAAACCTTCATCGCTCCTAATCCGTTTCCCTTACGCCTGCCTCGCTCACCCTCTG
DNA 2: CAGAGGGTGAGCGAGGCAGGCGTAAGGGAAACGGATTAGGAGCGATGAAGGTTTTTCATGTTACGCCTAAAGCGAGCCAGGTGGGAATCGTTGTTAGAAA
B5: no binding (TprA [2]).

B6: R5 (dsDNA)
DNA 1: CCTAGTCATCGAGAAATCCCCTCCCCTGTTGCCGAGTATTTCCTGCTGATGCGTGGCGGATGGCCTGCCACTGTGTGCCCCATCATCAAAGGGGGCCTCA
DNA 2: TGAGGCCCCCTTTGATGATGGGGCACACAGTGGCAGGCCATCCGCCACGCATCAGCAGGAAATACTCGGCAACAGGGGAGGGGATTTCTCGATGACTAGG
B6: no binding (TprA [2]).

B7: R3.2 (tprA-BS) (dsDNA)
DNA 1: AGTATTTAAAGCTCAATTAGCACCCCGTACTGT
DNA 2: ACAGTACGGGGTGCTAATTGAGCTTTAAATACT
B7: binds (TprA [1]).

B8: R3.1 (dsDNA)
DNA 1: AATTTAGCCCAATAGTATTTAAAGCTCAATTAGCAC
DNA 2: GTGCTAATTGAGCTTTAAATACTATTGGGCTAAATT
B8: no binding (TprA [1]).

B9: R3.3 (dsDNA)
DNA 1: TACTGTCTGACCTGAGTTCAACAAAGCATTCTA
DNA 2: TAGAATGCTTTGTTGAACTCAGGTCAGACAGTA
B9: no binding (TprA [1]).
